From PMC11574045, “A cofactor-induced repressive type of transcription factor condensation can be induced by synthetic peptides to suppress tumorigenesis” (The EMBO Journal, 2024) come the findings set out here.

B1: PATZ1 (protein, UniProt Q9HBE1 1-687, looked up)
POZ-, AT hook-, and zinc …: MERVNDASCGPSGCYTYQVSRHSTEMLHNLNQQRKNGGRFCDVLLRVGDESFPAHRAVLAACSEYFESVFSAQLGDGGAADGGPADVGGATAAPGGGAGGSRELEMHTISSKVFGDILDFAYTSRIVVRLESFPELMTAAKFLLMRSVIEICQEVIKQSNVQILVPPARADIMLFRPPGTSDLGFPLDMTNGAALAANSNGIAGSMQPEEEAARAAGAAIAGQASLPVLPGVDRLPMVAGPLSPQLLTSPFPSVASSAPPLTGKRGRGRPRKANLLDSMFGSPGGLREAGILPCGLCGKVFTDANRLRQHEAQHGVTSLQLGYIDLPPPRLGENGLPISEDPDGPRKRSRTRKQVACEICGKIFRDVYHLNRHKLSHSGEKPYSCPVCGLRFKRKDRMSYHVRSHDGSVGKPYICQSCGKGFSRPDHLNGHIKQVHTSERPHKCQTCNASFATRDRLRSHLACHEDKVPCQVCGKYLRAAYMADHLKKHSEGPSNFCSICNRGFSSASYLKVHVKTHHGVPLPQVSRHQEPILNGGAAFHCARTYGNKEGQKCSHQDPIESSDSYGDLSDASDLKTPEKQSANGSFSCDMAVPKNKMESDGEKKYPCPECGSFFRSKSYLNKHIQKVHVRALGGPLGDLGPALGSPFSPQQNMSLLESFGFQIVQSAFASSLVDPEVDQQPMGPEGK
B2: NUP62 (protein, UniProt P37198 2-522, looked up)
Nuclear pore glycoprotein p62: SGFNFGGTGAPTGGFTFGTAKTATTTPATGFSFSTSGTGGFNFGAPFQPATSTPSTGLFSLATQTPATQTTGFTFGTATLASGGTGFSLGIGASKLNLSNTAATPAMANPSGFGLGSSNLTNAISSTVTSSQGTAPTGFVFGPSTTSVAPATTSGGFSFTGGSTAQPSGFNIGSAGNSAQPTAPATLPFTPATPAATTAGATQPAAPTPTATITSTGPSLFASIATAPTSSATTGLSLCTPVTTAGAPTAGTQGFSLKAPGAASGTSTTTSTAATATATTTSSSSTTGFALNLKPLAPAGIPSNTAAAVTAPPGPGAAAGAAASSAMTYAQLESLINKWSLELEDQERHFLQQATQVNAWDRTLIENGEKITSLHREVEKVKLDQKRLDQELDFILSQQKELEDLLSPLEELVKEQSGTIYLQHADEEREKTYKLAENIDAQLKRMAQDLKDIIEHLNTSGAPADTSDPLQQICKILNAHMDSLQWIDQNSALLQRKVEEVTKVCEGRRKEQERSFRITFD
B3: OVOL1 (protein, UniProt O14753 1-267, looked up)
Putative transcription factor …: MPRAFLVKKPCVSTCKRNWSELPDEERGEIYVPVSLGFCPPQPYREPEPSVAEPPSCPLALNMSLRDSSYSMAPGPCVVAQLPSEDMGHLTDPQSRDHGFLRTKMKVTLGDSPSGDLFTCRVCQKAFTYQRMLNRHMKCHNDVKRHLCTYCGKGFNDTFDLKRHVRTHTGVRPYKCSLCDKAFTQRCSLESHLKKIHGVQQKYAYKERRAKLYVCEECGCTSESQEGHVLHLKEHHPDSPLLRKTSKKVAVALQNTVTSLLQGSPHL
B4: OLIG1 (protein, UniProt Q8TAK6 1-271, looked up)
Oligodendrocyte transcription …: MYYAVSQARVNAVPGTMLRPQRPGDLQLGASLYELVGYRQPPSSSSSSTSSTSSTSSSSTTAPLLPKAAREKPEAPAEPPGPGPGSGAHPGGSARPDAKEEQQQQLRRKINSRERKRMQDLNLAMDALREVILPYSAAHCQGAPGRKLSKIATLLLARNYILLLGSSLQELRRALGEGAGPAAPRLLLAGLPLLAAAPGSVLLAPGAVGPPDALRPAKYLSLALDEPPCGQFALPGGGAGGPGLCTCAVCKFPHLVPASLGLAAVQAQFSK
B5: OLIG3 (protein, UniProt Q7RTU3 1-272, looked up)
Oligodendrocyte transcription …: MNSDSSSVSSRASSPDMDEMYLRDHHHRHHHHQESRLNSVSSTQGDMMQKMPGESLSRAGAKAAGESSKYKIKKQLSEQDLQQLRLKINGRERKRMHDLNLAMDGLREVMPYAHGPSVRKLSKIATLLLARNYILMLTSSLEEMKRLVGEIYGGHHSAFHCGTVGHSAGHPAHAANSVHPVHPILGGALSSGNASSPLSAASLPAIGTIRPPHSLLKAPSTPPALQLGSGFQHWAGLPCPCTICQMPPPPHLSALSTANMARLSAESKDLLK
B6: ATF7 (protein, UniProt P17544 1-483, looked up)
Cyclic AMP-dependent …: MGDDRPFVCNAPGCGQRFTNEDHLAVHKHKHEMTLKFGPARTDSVIIADQTPTPTRFLKNCEEVGLFNELASSFEHEFKKAADEDEKKAAAGPLDMSLPSTPDIKIKEEEPVEVDSSPPDSPASSPCSPPLKEKEVTPKPVLISTPTPTIVRPGSLPLHLGYDPLHPTLPSPTSVITQAPPSNRQMGSPTGSLPLVMHLANGQTMPVLPGPPVQMPSVISLARPVSMVPNIPGIPGPPVNSSGSISPSGHPIPSEAKMRLKATLTHQVSSINGGCGMVVGTASTMVTARPEQSQILIQHPDAPSPAQPQVSPAQPTPSTGGRRRRTVDEDPDERRQRFLERNRAAASRCRQKRKLWVSSLEKKAEELTSQNIQLSNEVTLLRNEVAQLKQLLLAHKDCPVTALQKKTQGYLESPKESSEPTGSPAPVIQHSSATAPSNGLSVRSAAEAVATSVLTQMASQRTELSMPIQSHVIMTPQSQSAGR
B7: NSD2 (protein, UniProt O96028 1-1365, looked up)
Histone-lysine …: MEFSIKQSPLSVQSVVKCIKMKQAPEILGSANGKTPSCEVNRECSVFLSKAQLSSSLQEGVMQKFNGHDALPFIPADKLKDLTSRVFNGEPGAHDAKLRFESQEMKGIGTPPNTTPIKNGSPEIKLKITKTYMNGKPLFESSICGDSAADVSQSEENGQKPENKARRNRKRSIKYDSLLEQGLVEAALVSKISSPSDKKIPAKKESCPNTGRDKDHLLKYNVGDLVWSKVSGYPWWPCMVSADPLLHSYTKLKGQKKSARQYHVQFFGDAPERAWIFEKSLVAFEGEGQFEKLCQESAKQAPTKAEKIKLLKPISGKLRAQWEMGIVQAEEAASMSVEERKAKFTFLYVGDQLHLNPQVAKEAGIAAESLGEMAESSGVSEEAAENPKSVREECIPMKRRRRAKLCSSAETLESHPDIGKSTPQKTAEADPRRGVGSPPGRKKTTVSMPRSRKGDAASQFLVFCQKHRDEVVAEHPDASGEEIEELLRSQWSLLSEKQRARYNTKFALVAPVQAEEDSGNVNGKKRNHTKRIQDPTEDAEAEDTPRKRLRTDKHSLRKRDTITDKTARTSSYKAMEAASSLKSQAATKNLSDACKPLKKRNRASTAASSALGFSKSSSPSASLTENEVSDSPGDEPSESPYESADETQTEVSVSSKKSERGVTAKKEYVCQLCEKPGSLLLCEGPCCGAFHLACLGLSRRPEGRFTCSECASGIHSCFVCKESKTDVKRCVVTQCGKFYHEACVKKYPLTVFESRGFRCPLHSCVSCHASNPSNPRPSKGKMMRCVRCPVAYHSGDACLAAGCSVIASNSIICTAHFTARKGKRHHAHVNVSWCFVCSKGGSLLCCESCPAAFHPDCLNIEMPDGSWFCNDCRAGKKLHFQDIIWVKLGNYRWWPAEVCHPKNVPPNIQKMKHEIGEFPVFFFGSKDYYWTHQARVFPYMEGDRGSRYQGVRGIGRVFKNALQEAEARFREIKLQREARETQESERKPPPYKHIKVNKPYGKVQIYTADISEIPKCNCKPTDENPCGFDSECLNRMLMFECHPQVCPAGEFCQNQCFTKRQYPETKIIKTDGKGWGLVAKRDIRKGEFVNEYVGELIDEEECMARIKHAHENDITHFYMLTIDKDRIIDAGPKGNYSRFMNHSCQPNCETLKWTVNGDTRVGLFAVCDIPAGTELTFNYNLDCLGNEKTVCRCGASNCSGFLGDRPKTSTTLSSEEKGKKTKKKTRRRRAKGEGKRQSEDECFRCGDGGQLVLCDRKFCTKAYHLSCLGLGKRPFGKWECPWHHCDVCGKPSTSFCHLCPNSFCKEHQDGTAFSCTPDGRSYCCEHDLGAASVRSTKTEKPPPEPGKPKGKRRRRRGWRRVTEGK
B8: PA2G4 (protein, UniProt Q9UQ80 2-394, looked up)
Proliferation-associated …: SGEDEQQEQTIAEDLVVTKYKMGGDIANRVLRSLVEASSSGVSVLSLCEKGDAMIMEETGKIFKKEKEMKKGIAFPTSISVNNCVCHFSPLKSDQDYILKEGDLVKIDLGVHVDGFIANVAHTFVVDVAQGTQVTGRKADVIKAAHLCAEAALRLVKPGNQNTQVTEAWNKVAHSFNCTPIEGMLSHQLKQHVIDGEKTIIQNPTDQQKKDHEKAEFEVHEVYAVDVLVSSGEGKAKDAGQRTTIYKRDPSKQYGLKMKTSRAFFSEVERRFDAMPFTLRAFEDEKKARMGVVECAKHELLQPFNVLYEKEGEFVAQFKFTVLLMPNGPMRITSGPFEPDLYKSEMEVQDAELKALLQSSASRKTQKKKKKKASKTAENATSGETLEENEAGD
B9: NRIP1 (protein, UniProt P48552 1-1158, looked up)
Nuclear receptor-interacting …: MTHGEELGSDVHQDSIVLTYLEGLLMHQAAGGSGTAVDKKSAGHNEEDQNFNISGSAFPTCQSNGPVLNTHTYQGSGMLHLKKARLLQSSEDWNAAKRKRLSDSIMNLNVKKEALLAGMVDSVPKGKQDSTLLASLLQSFSSRLQTVALSQQIRQSLKEQGYALSHDSLKVEKDLRCYGVASSHLKTLLKKSKVKDQKPDTNLPDVTKNLIRDRFAESPHHVGQSGTKVMSEPLSCAARLQAVASMVEKRASPATSPKPSVACSQLALLLSSEAHLQQYSREHALKTQNANQAASERLAAMARLQENGQKDVGSYQLPKGMSSHLNGQARTSSSKLMASKSSATVFQNPMGIIPSSPKNAGYKNSLERNNIKQAANNSLLLHLLKSQTIPKPMNGHSHSERGSIFEESSTPTTIDEYSDNNPSFTDDSSGDESSYSNCVPIDLSCKHRTEKSESDQPVSLDNFTQSLLNTWDPKVPDVDIKEDQDTSKNSKLNSHQKVTLLQLLLGHKNEENVEKNTSPQGVHNDVSKFNTQNYARTSVIESPSTNRTTPVSTPPLLTSSKAGSPINLSQHSLVIKWNSPPYVCSTQSEKLTNTASNHSMDLTKSKDPPGEKPAQNEGAQNSATFSASKLLQNLAQCGMQSSMSVEEQRPSKQLLTGNTDKPIGMIDRLNSPLLSNKTNAVEENKAFSSQPTGPEPGLSGSEIENLLERRTVLQLLLGNPNKGKSEKKEKTPLRDESTQEHSERALSEQILMVKIKSEPCDDLQIPNTNVHLSHDAKSAPFLGMAPAVQRSAPALPVSEDFKSEPVSPQDFSFSKNGLLSRLLRQNQDSYLADDSDRSHRNNEMALLESKNLCMVPKKRKLYTEPLENPFKKMKNNIVDAANNHSAPEVLYGSLLNQEELKFSRNDLEFKYPAGHGSASESEHRSWARESKSFNVLKQLLLSENCVRDLSPHRSNSVADSKKKGHKNNVTNSKPEFSISSLNGLMYSSTQPSSCMDNRTFSYPGVVKTPVSPTFPEHLGCAGSRPESGLLNGCSMPSEKGPIKWVITDAEKNEYEKDSPRLTKTNPILYYMLQKGGNSVTSRETQDKDIWREASSAESVSQVTAKEELLPTAETKASFFNLRSPYNSHMGNNASRPHSANGEVYGLLGSVLTIKKESE
B10: OVOL3 (protein, UniProt O00110 1-190, looked up)
Putative transcription factor …: MPRAFLVRSRRPQPPNWGHLPDQLRGDAYIPDCSSLGGPPAQQSSSVRDPWTAQPTQGNLTSAPRGPGTLGCPLCPKAFPLQRMLTRHLKCHSPVRRHLCRCCGKGFHDAFDLKRHMRTHTGIRPFRCSACGKAFTQRCSLEAHLAKVHGQPASYAYRERREKLHVCEDCGFTSSRPDTYAQHRALHRAA

This test concerns HEK293FT cells transfected with TF library. Nature of the test: Screening of TF condensates based on fluorescent puncta. The format is cell-based. To be noted: Figure 1B numerical data; TF library screen, one value per transcriptional factor. In outline:
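TF plasmids (final 1.6 μg/ml) reverse-transfected with PEI (4.8 μg/ml) into HEK293FT cells; after 60 h, cells cultured ±glucose for 12 h, fixed in 4% PFA and immunostained for Flag or GAL4 tags with Alexa 488 secondaries. Puncta scored by automated imaging of 50 random fields per well.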
Consider B1, for which the “Z score of condensed fraction” value is given as -0.2188.
For the molecule B2, the “Z score of condensed fraction” value is given as -0.01313.
Turning to B3, the “Z score of condensed fraction” value is on record as -0.194.
Consider B4, for which the “Z score of condensed fraction” value is -1.059.
B5: the “Z score of condensed fraction” value is -0.3841.
The value for B6 was -0.2253.
For the molecule B7, the “Z score of condensed fraction” value is reported as -0.8212.
Consider B8, for which the “Z score of condensed fraction” value came to 0.5274.
With B9, the “Z score of condensed fraction” value was 2.676.
Under B10 stands -0.7593.
